This data set deals with the molecule itself. Nature of the data set: ONE expansion microscopy of the purified protein.

B1: full-length human GABAA receptor β3 subunit homopentamer (receptor)
chain: QSVNDPGNMSFVKETVDKLLKGYDIRLRPDFGGPPVCVGMNIDIASIDMVSEVNMDYTLTMYFQQYWRDKRLAYSGIPLNLTLDNRVADQLWVPDTYFLNDKKSFVHGVTVKNRMIRLHPDGTVLYGLRITTTAACMMDLRRYPLDEQNCTLEIESYGYTTDDIEFYWRGGDKAVTGVERIELPQFSIVEHRLVSRNVVFATGAYPRLSLSFRLKRNIGYFILQTYMPSILITILSWVSFWINYDASAARVALGITTVLTMTTINTHLRETLPKIPYVKAIDMYLMGCFVFVFLALLEYAFVNYIFFGRGPQRQKKLAEKTAKAKNDRSKSESNRVDAHGNILLTSLEVHNEMNEVSGGIGDTRNSAISFDNSGIQYRKQSMPREGHGRFLGDRSLPHKKTHLRRRSSQLKIKIPDLTDVNAIDRWSRIVFPFTFSLFNLVYWLYYVN
In the case of B1, the binding result is “binds”.
